Measurements from patent US20260242478A1 (published 2026).
Where no end group is shown, it is not given here.

B1: Phage-457 (peptide)
peptide: PDCQTILFKPWCVR
modifications: cysteine pairing not given here; also: displayed as fusion to phage pIII, linker and pIII sequence not given here
notes: Clonal phage supernatant; also called Peptide-78; not shown: fused to the pIII filament protein of the bacteriophage
B2: Phage-458 (peptide)
peptide: ACDTYFAGMINECF
modifications: cysteine pairing not given here; also: displayed as fusion to phage pIII, linker and pIII sequence not given here
notes: Clonal phage supernatant; also called Peptide-79; not shown: fused to the pIII filament protein of the bacteriophage
B3: Phage-1743 (peptide)
peptide: MEYCSFHRFTCVLW
B4: Phage-456 (peptide)
peptide: FMCLPQNPHPLCFK
notes: Clonal phage supernatant; also called Peptide-77; not shown: fused to the pIII filament protein of the bacteriophage
B5: Phage-455 (peptide)
peptide: WECLKYTEANACTY
notes: Clonal phage supernatant; also called Peptide-76; not shown: fused to the pIII filament protein of the bacteriophage
B6: Phage-463 (peptide)
peptide: YCAGHSPINIGKCL
modifications: cysteine pairing not given here; also: displayed as fusion to phage pIII, linker and pIII sequence not given here
notes: Clonal phage supernatant; also called Peptide-84; not shown: fused to the pIII filament protein of the bacteriophage
B7: Phage-1756 (peptide)
peptide: QCVWDLTNYWMNCD
B8: Peptide-153 (peptide)
peptide: TCAAGATYLWPTCL
B9: Phage-1745 (peptide)
peptide: QLPCHYWGEWCPQA
B10: Phage-1751 (peptide)
peptide: WCWVQDDRRHVVCG
B11: Phage-466 (peptide)
peptide: YCAGHAWQYINKCL
modifications: cysteine pairing not given here; also: displayed as fusion to phage pIII, linker and pIII sequence not given here
notes: Clonal phage supernatant; also called Peptide-87; not shown: fused to the pIII filament protein of the bacteriophage
B12: Phage-462 (peptide)
peptide: ECHWSMWAVGHACF
modifications: cysteine pairing not given here; also: displayed as fusion to phage pIII, linker and pIII sequence not given here
notes: Clonal phage supernatant; also called Peptide-83; not shown: fused to the pIII filament protein of the bacteriophage
B13: Phage-1747 (peptide)
peptide: PLCGTEEVWWECRL
B14: Phage-468 (peptide)
peptide: YWYCSPSIVRCVLV
notes: Clonal phage supernatant; also called Peptide-89; not shown: fused to the pIII filament protein of the bacteriophage
B15: Phage-461 (peptide)
peptide: WCWDYREWVPMTCP
modifications: cysteine pairing not given here; also: displayed as fusion to phage pIII, linker and pIII sequence not given here
notes: Clonal phage supernatant; also called Peptide-82; not shown: fused to the pIII filament protein of the bacteriophage
B16: Phage-467 (peptide)
peptide: WCWYYREWVPMTCP
modifications: cysteine pairing not given here; also: displayed as fusion to phage pIII, linker and pIII sequence not given here
notes: Clonal phage supernatant; also called Peptide-88; not shown: fused to the pIII filament protein of the bacteriophage
B17: Phage-1753 (peptide)
peptide: QCVWDNFNYWMDCD
B18: Phage-1757 (peptide)
peptide: DCHWNKATWWMDCE
B19: Phage-454 (peptide)
peptide: YWSCFQIPFTCFYF
notes: Clonal phage supernatant; also called Peptide-75; not shown: fused to the pIII filament protein of the bacteriophage
B20: Phage-460 (peptide)
peptide: WCWDYKLWVPTQCP
modifications: cysteine pairing not given here; also: displayed as fusion to phage pIII, linker and pIII sequence not given here
notes: Clonal phage supernatant; also called Peptide-81; not shown: fused to the pIII filament protein of the bacteriophage
B21: Phage-1748 (peptide)
peptide: LTRCVPDWMCYRAV
B22: Phage-471 (peptide)
peptide: SCAAGASYAWPYCL
notes: Clonal phage supernatant; also called Peptide-92; not shown: fused to the pIII filament protein of the bacteriophage
B23: Phage-1746 (peptide)
peptide: FWECYSSFCRFVEG
B24: Phage-1744 (peptide)
peptide: SKLLCVPPWMCYHV
B25: Peptide-152 (peptide)
peptide: TCSAGATWAWPLCF
B26: Phage-465 (peptide)
peptide: DCWWMFESYPGRCI
modifications: cysteine pairing not given here; also: displayed as fusion to phage pIII, linker and pIII sequence not given here
notes: Clonal phage supernatant; also called Peptide-86; not shown: fused to the pIII filament protein of the bacteriophage
B27: Peptide-151 (peptide)
peptide: SCSAGAAYYWPWCL
B28: Phage-464 (peptide)
peptide: WCWDYKLWVPMTCP
modifications: cysteine pairing not given here; also: displayed as fusion to phage pIII, linker and pIII sequence not given here
notes: Clonal phage supernatant; also called Peptide-85; not shown: fused to the pIII filament protein of the bacteriophage
B29: Phage-470 (peptide)
peptide: WICDKSGSIMLCRA
notes: Clonal phage supernatant; also called Peptide-91; not shown: fused to the pIII filament protein of the bacteriophage
B30: Peptide-154 (peptide)
peptide: TCAAGAHYPWPACL
B31: Phage-1758 (peptide)
peptide: MCFVTGWGVPDDCN
B32: Phage-1755 (peptide)
peptide: MCQWDKINYWMDCD
B33: Phage-1749 (peptide)
peptide: YCWVDADMWLIFRC
B34: Phage-1754 (peptide)
peptide: QCTWNEKTWWMECE
B35: Phage-459 (peptide)
peptide: GCQYPWAFDAMSCP
modifications: cysteine pairing not given here; also: displayed as fusion to phage pIII, linker and pIII sequence not given here
notes: Clonal phage supernatant; also called Peptide-80; not shown: fused to the pIII filament protein of the bacteriophage
B36: Phage-1750 (peptide)
peptide: ILPCHWYTSDCPQH
notes: also called Peptide-200
B37: Phage-472 (peptide)
peptide: DCPWLSGFSRPLLC
notes: Clonal phage supernatant; also called Peptide-93; not shown: fused to the pIII filament protein of the bacteriophage
B38: Phage-1742 (peptide)
peptide: HCLWHESSGRVLCF
B39: Phage-1752 (peptide)
peptide: MCQWDELNYWMDCD

How the values were obtained:
[1] = biological target: T1, Anti-CD28 Fab (SEQ ID NOs: 696, 697); assay: phage binding ELISA; biotinylated anti-CD28 Fab on neutravidin plate, anti-M13 HRP detection
T1 construct: Biotinylated and captured on neutravidin coated plates in the phage ELISA
T1 sequence (VH, as listed by the source, chain 1 of 2): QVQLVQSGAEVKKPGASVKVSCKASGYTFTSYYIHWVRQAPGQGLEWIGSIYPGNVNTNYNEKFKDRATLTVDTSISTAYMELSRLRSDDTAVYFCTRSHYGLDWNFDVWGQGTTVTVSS
T1 sequence (VL, as listed by the source, chain 2 of 2): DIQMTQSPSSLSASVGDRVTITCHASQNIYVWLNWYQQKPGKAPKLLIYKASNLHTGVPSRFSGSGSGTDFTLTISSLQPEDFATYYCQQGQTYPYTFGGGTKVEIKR
Method: (§1) Clonal phage were harvested as crude supematants and screened via standard ELISAs. […] Prior to the addition of clonal phage, wells were incubated with blocking buffer and CD28 antigen or blocking buffer alone. Without washing or aspirating, clonal phage supematants were then added to the wells and incubated for a short time. Wells were then washed followed by detection of bound phage using a horse radish conjugated anti-M13 antibody.

[2] = biological target: T1, Anti-CD28 Fab (SEQ ID NOs: 696, 697); assay: phage binding ELISA on captured anti-CD28 Fab; competitor CD28 antigen
Method: as §1

[3] = biological target: T2, Anti-PSMA Fab (SEQ ID NOs: 19, 20); assay: phage ELISA; clonal phage on captured PSMA Fab pre-incubated with PSMA antigen as competitor, anti-M13 HRP detection
T2 construct: also called 006 PSMA Fab
Method: (§2) Clonal phage were harvested as crude supernatants and screened via standard ELISAs. […] Prior to the addition of clonal phage. wells were incubated with blocking buffer and PSMA antigen or blocking buffer alone. Without washing or aspirating, clonal phage supernatants were then added to the wells and incubated for a short time. Wells were then washed followed by detection of bound phage using a horse radish conjugated anti-M13 antibody.

[4] = biological target: T2, Anti-PSMA Fab (SEQ ID NOs: 19, 20); assay: phage ELISA; clonal phage supernatant on biotinylated PSMA Fab captured on neutravidin plates, anti-M13 HRP detection
Method: as §2

anti-CD28 Fab = assay: competition ELISA, peptide titrated 0-100 uM against 1 nM anti-CD28 Fab, plate-bound CD28 as competitor
Sequence of anti-CD28 Fab (VH, as listed by the source, chain 1 of 2): as the sequence (VH, as listed by the source, chain 1 of 2) above
Sequence of anti-CD28 Fab (VL, as listed by the source, chain 2 of 2): as the sequence (VL, as listed by the source, chain 2 of 2) above

Binder	Anti-CD28 Fab (SEQ ID NOs: 696, 697) signal [1]	Anti-CD28 Fab signal in the presence of CD28 [2]	Phage binding ELISA, Anti-PSMA Fab signal in the presence of PSMA [3]	Phage binding ELISA, Anti-PSMA Fab (SEQ ID NOs: 19, 20) signal [4]	IC50 (anti-CD28 Fab)
B1	2.09	0.06			
B2	0.92	0.1			
B3			0.116	1.93	
B4	0.84	0.06			
B5	1.55	0.07			
B6	1.49	0.06			
B7			0.057	1.3	
B8					8.42 µM
B9			0.0537	1.39	
B10			0.0549	1.19	
B11	0.64	0.07			
B12	1.77	0.07			
B13			0.0826	1.78	
B14	1.51	0.09			
B15	2.3	0.08			
B16	1.85	0.07			
B17			0.0667	0.772	
B18			0.0828	1.18	
B19	1.44	0.27			
B20	2.27	0.14			

Binder	Anti-CD28 Fab (SEQ ID NOs: 696, 697) signal [1]	Anti-CD28 Fab signal in the presence of CD28 [2]	Phage binding ELISA, Anti-PSMA Fab signal in the presence of PSMA [3]	Phage binding ELISA, Anti-PSMA Fab (SEQ ID NOs: 19, 20) signal [4]	IC50 (anti-CD28 Fab)
B21			0.0708	1.17	
B22	1.49	0.05			
B23			0.139	1.46	
B24			0.0794	0.806	
B25					2.22 µM
B26	1.65	0.07			
B27					80.5 µM
B28	2.51	0.11			
B29	0.91	0.06			
B30					2.2 µM
B31			0.0694	0.638	
B32			0.049	1.81	
B33			0.275	1.01	
B34			0.0568	1.35	
B35	2.38	0.07			
B36			0.117	1.63	
B37	1.27	0.07			
B38			0.0678	2.15	
B39			0.0565	1.65	
